Reference: PMC3838848 (BioMed Research International, 2013)

Molecular target: the molecule itself
Assay: SEC-MALS; 500 uL sample at 1 mg/mL on Superdex 75 10/30 in 50 mM Tris-HCl, 0.15 M NaCl, pH 8.0, online triple-angle static light scattering (MiniDAWN Treos)

B1: POZ/BTB domain of KCTD6 (domain or fragment, human, UniProt Q8NC69 10-110, looked up)
chain: MTDPVTLNVGGHLYTTSLTTLTRYPDSMLGAMFGGDFPTARDPQGNYFIDRDGPLFRYVLNFLRTSELTLPLDFKEFDLLRKEADFYQIEPLIQCLNDPKP
notes: KCTD6, human, POZ/BTB domain, residues 10-110 of the protein of 237 residues (UniProt Q8NC69); cDNA NM_153331; also called KCTD6BTB; source: E. coli BL21(DE3) Star, purified
stoichiometry N: 4
